# Biological target: GST-tagged constitutively active Rab1A Q67L (Dictyostelium) (UniProt P34139)
# Assay: pull-down
# UniProt P34139, sequence (P34139 whole entry Q67L): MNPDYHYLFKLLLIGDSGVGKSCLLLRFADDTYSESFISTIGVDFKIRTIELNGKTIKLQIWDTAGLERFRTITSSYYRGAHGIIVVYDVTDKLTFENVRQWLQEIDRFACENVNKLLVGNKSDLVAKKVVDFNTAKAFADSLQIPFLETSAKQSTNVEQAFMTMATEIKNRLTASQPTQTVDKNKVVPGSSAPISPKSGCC
substance,measurement,value
T7-tagged Roco2 (wild type) (enzyme),fold of Roco2 pulled down against wild-type Rab1A,> 5 fold
